Paper PMC11910330, “Familial Alzheimer’s disease mutations in amyloid precursor protein impair calcineurin signaling to NMDA receptors” (The Journal of Biological Chemistry, 2024)

Biological target: recombinant GST-tagged CaN A subunit, Q08209
Test: in vitro peptide pull-down (biotinylated peptide, immunoblot quantification)
Conditions: chain shown with the change; recombinant GST-CaN (200 ng); parent: est. 47; read off a plot

B1: APP peptide (APP core CaN-binding sequence in the PVIVIT peptide) V642I (peptide)
chain: MAGPHTVIIITGPHEE
With B1 the response (% CaN input recovered) was 44.

B2: APP peptide (APP core CaN-binding sequence in the PVIVIT peptide) I641F (peptide)
chain: MAGPHTVFVITGPHEE
With B2 the response (% CaN input recovered) was 23.

B3: APP peptide (APP core CaN-binding sequence in the PVIVIT peptide) T639I (peptide)
chain: MAGPHIVIVITGPHEE
B3 was tested, and the response (% CaN input recovered) was 54.

B4: APP peptide (APP core CaN-binding sequence in the PVIVIT peptide) V640M (peptide)
chain: MAGPHTMIVITGPHEE
Work on B4 yielded a response (% CaN input recovered) of 43.

B5: APP peptide (APP core CaN-binding sequence in the PVIVIT peptide) T644P (peptide)
chain: MAGPHTVIVIPGPHEE
Work on B5 yielded a response (% CaN input recovered) of 5.

B6: APP peptide (APP core CaN-binding sequence in the PVIVIT peptide) V642F (peptide)
chain: MAGPHTVIFITGPHEE
In the case of B6, the response (% CaN input recovered) is reported as 44.
